{
  "source": "patent US11124558B2",
  "about": "“Use of tetranectin and peptide agonists to treat inflammatory diseases” (The Feinstein Institutes for Medical Research, priority 2017, dated 2021)",
  "system": "circulating D-dimer, endotoxemic Balb/C mice",
  "test": "Plasma D-dimer level in endotoxemic mice (ELISA)",
  "assay_type": "in vivo",
  "conditions": "24 h post endotoxemia",
  "experimental": "Venous blood was obtained from normal healthy and endotoxemic, Balb/C mice at 24 h post endotoxemia in the absence or presence of recombinant TN. The plasma level of fibrin degradation product (FDP's, e.g., D-dimer) was measured using commercial ELISA kit (Cat. No. EKU03631, Biomatik) as per the manufacturers' instructions. *, P<0.05 as compared to the positive control (+LPS alone).\nIn light of HMGB1's key role in the platelet activation/aggregation and its possible interaction with TN protein, the impact of TN or TN-specific peptide agonists on the pro-fibrinolytic activities is evaluated by measuring the plasma level of fibrin degradation products (FDP's, e.g., D-dimer) using commercial ELISA kits (Cat. No. EKU03631, Biomatik) as per the manufacturers' instructions. A parallel elevation of D-dimer levels is indicative of a possible acceleration of the fibrinolysis cascade by the TN treatment. However, a decrease in the D-dimer concentration is indicative of a reduction of either the plasmin-mediated fibrinolysis or the thrombin-mediated coagulation. […] Given the complex roles of fibrinolysis in sepsis, therapeutic agents that could control coagulation/fibrinolysis balance, while maintaining the host defense at the infectious foci, can be useful for understanding the complex pathogenesis of lethal systemic inflammatory diseases.",
  "data": [
    {"molecule": "tetranectin (protein, listed as Homo sapiens) EPPTQKPKKIVNAKKDVVNTKMFEELKSRLDTLAQEVALLKEQQALQTVCLKGTKVHMKCFLAFTQTKTFHEASEDCISRGGTLGTPQTGSENDALYEYLRQSVGNEAEIWLGLNDMAAEGTWVDMTGARIAYKNWETEITAQPDGGKTENCAVLSGAANGKWFDKRCRDQLPYICQFGIV", "values": [
      {"measurement": "effect on endotoxin-induced elevation of circulating D-dimer levels", "setting": "P<0.05 vs +LPS alone", "value": "significantly attenuated"},
      {"measurement": "reduction of plasma D-dimer levels", "setting": "at doses that conferred significant protection", "value": "40-50%"}
    ]}
  ]
}
